Reference: publication PMC10884834, “SPR spectroscopic analysis of myosin binding to wild type and mutant UNC45B” (microPublication Biology, 2024)

Experiments:
[1] = biological target: myosin II, full-length, purified from rabbit skeletal muscle (rabbit, UniProt Q28641 1-1938); test: SPR; BIAcore X100; His-tagged UNC45B constructs (0.2 uM) captured on Ni2+-NTA sensor chip; myosin analyte 1 up to 3500 nM at 5 ul/min; HBS-P (10 mM HEPES, 150 mM NaCl, 0.005% Tween20, pH 7.4) plus 50 uM EDTA; 20 C; steady-state signal fitted to a 1:1 one-site saturation model; n=3; conditions: both partners purified
[2] = biological target: myosin II, full-length, purified from rabbit skeletal muscle (rabbit, UniProt Q28641 1-1938, Deletion taken as residues 600-630, as the methods print for the mutant; the description gives the loop as N601-D630, so residue 600 is uncertain. Full-length canonical isoform (931 aa) assumed. His-t); test: as above; conditions: both partners purified

Kd [1]	Kd [2]	Binder
330 nM		UNC45B (wild type), Homo sapiens (natural protein, human, UniProt Q8IWX7 1-931, looked up, UNC45B, Homo sapiens, codon optimized for E. coli, synthesized (GenScript), in a pET-28 vector; also called wild-type UNC-45B; source: E. coli BL21 DE3, purified (HisPur Ni-NTA resin)) MAEVEAVQLKEEGNRHFQLQDYKAATNSYSQALKLTKDKALLATLYRNRAACGLKTESYVQAASDASRAIDINSSDIKALYRRCQALEHLGKLDQAFKDVQRCATLEPRNQNFQEMLRRLNTSIQEKLRVQFSTDSRVQKMFEILLDENSEADKREKAANNLIVLGREEAGAEKIFQNNGVALLLQLLDTKKPELVLAAVRTLSGMCSGHQARATVILHAVRIDRICSLMAVENEEMSLAVCNLLQAIIDSLSGEDKREHRGKEEALVLDTKKDLKQITSHLLDMLVSKKVSGQGRDQALNLLNKNVPRKDLAIHDNSRTIYVVDNGLRKILKVVGQVPDLPSCLPLTDNTRMLASILINKLYDDLRCDPERDHFRKICEEYITGKFDPQDMDKNLNAIQTVSGILQGPFDLGNQLLGLKGVMEMMVALCGSERETDQLVAVEALIHASTKLSRATFIITNGVSLLKQIYKTTKNEKIKIRTLVGLCKLGSAGGTDYGLRQFAEGSTEKLAKQCRKWLCNMSIDTRTRRWAVEGLAYLTLDADVKDDFVQDVPALQAMFELAKAGTSDKTILYSVATTLVNCTNSYDVKEVIPELVQLAKFSKQHVPEEHPKDKKDFIDMRVKRLLKAGVISALACMVKADSAILTDQTKELLARVFLALCDNPKDRGTIVAQGGGKALIPLALEGTDVGKVKAAHALAKIAAVSNPDIAFPGERVYEVVRPLVRLLDTQRDGLQNYEALLGLTNLSGRSDKLRQKIFKERALPDIENYMFENHDQLRQAATECMCNMVLHKEVQERFLADGNDRLKLVVLLCGEDDDKVQNAAAGALAMLTAAHKKLCLKMTQVTTQWLEILQRLCLHDQLSVQHRGLVIAYNLLAADAELAKKLVESELLEILTVVGKQEPDEKKAEVVQTARECLIKCMDYGFIKPVS
	2630 nM	UNC45B loop deletion mutant (residues 600-630), Homo sapiens (natural protein) MAEVEAVQLKEEGNRHFQLQDYKAATNSYSQALKLTKDKALLATLYRNRAACGLKTESYVQAASDASRAIDINSSDIKALYRRCQALEHLGKLDQAFKDVQRCATLEPRNQNFQEMLRRLNTSIQEKLRVQFSTDSRVQKMFEILLDENSEADKREKAANNLIVLGREEAGAEKIFQNNGVALLLQLLDTKKPELVLAAVRTLSGMCSGHQARATVILHAVRIDRICSLMAVENEEMSLAVCNLLQAIIDSLSGEDKREHRGKEEALVLDTKKDLKQITSHLLDMLVSKKVSGQGRDQALNLLNKNVPRKDLAIHDNSRTIYVVDNGLRKILKVVGQVPDLPSCLPLTDNTRMLASILINKLYDDLRCDPERDHFRKICEEYITGKFDPQDMDKNLNAIQTVSGILQGPFDLGNQLLGLKGVMEMMVALCGSERETDQLVAVEALIHASTKLSRATFIITNGVSLLKQIYKTTKNEKIKIRTLVGLCKLGSAGGTDYGLRQFAEGSTEKLAKQCRKWLCNMSIDTRTRRWAVEGLAYLTLDADVKDDFVQDVPALQAMFELAKAGTSDKTILYSVATTLVNCTNSYDVKEVIPELVQLAISALACMVKADSAILTDQTKELLARVFLALCDNPKDRGTIVAQGGGKALIPLALEGTDVGKVKAAHALAKIAAVSNPDIAFPGERVYEVVRPLVRLLDTQRDGLQNYEALLGLTNLSGRSDKLRQKIFKERALPDIENYMFENHDQLRQAATECMCNMVLHKEVQERFLADGNDRLKLVVLLCGEDDDKVQNAAAGALAMLTAAHKKLCLKMTQVTTQWLEILQRLCLHDQLSVQHRGLVIAYNLLAADAELAKKLVESELLEILTVVGKQEPDEKKAEVVQTARECLIKCMDYGFIKPVS
